# Target: NtMYC2aΔN (C-terminal bHLH domain) (Nicotiana tabacum)
# Assay: EMSA; 10 mM Tris, 50 mM KCl, 1 mM DTT, poly(dI-dC), room temperature; 500x cold probe reduced the signal
# Details: tags: GST fusion, cleaved with thrombin; label: 3' biotin
# Experimental: EMSA was performed according to manual of the kit (LightShift,) Chemiluminescent EMSA Kit, Pierce). The binding buffer was 10 mM Tris, 50 mM KCl, 1 mM DTT, 0.05 μg/μl poly(di-dc), 0.05% NP-40, and 2.5% (v/v) glycerol. The probe was 20 fmol for each reaction. The cold probe and mutated probe were 10 pmol (500×) and the protein was 0.75 μg MYC2aΔN. The binding reaction was performed at room temperature for 20 min. The reaction mixture was separated on a 5% polyacrylamide gel and blotted on Hybond™-N⁺ membrane (Amersham, Piscataway, N.J., USA). UV crosslinker was used to crosslink the DNA to membrane. The membrane was probed and signal was detected according to the manual of kit (Chemiluminescent Nucleic Acid Detection Module Kit, Pierce). Kodak BioMax MS film (Carestream Health, Inc. Rochester, N.Y.) was exposed to record the signal.
# Three G-boxes (G2, G3 and G4) were identified in the 0.6 kb NtQPT2 promoter (NCBI accession No. AJ748263), among which G2 box has the highest binding strength with NtMYC2b (Shoji and Hashimoto, 2011). To validate that NtMYC2a binds to G2-box. EMSA experiment was performed with probes of 38 bp consisting of a G2 box (CACGTT) and flanking regions from the NtQPT2 promoter and mutated probe with mutation in the G2 box sequence. We cloned the full length of NtMYC2a and expressed the recombinant protein (NtMYC2a fused with GST) in E. coli. […]
# Chain of NtMYC2aΔN (C-terminal bHLH domain) (Nicotiana tabacum) (chain, as listed by the source mutant): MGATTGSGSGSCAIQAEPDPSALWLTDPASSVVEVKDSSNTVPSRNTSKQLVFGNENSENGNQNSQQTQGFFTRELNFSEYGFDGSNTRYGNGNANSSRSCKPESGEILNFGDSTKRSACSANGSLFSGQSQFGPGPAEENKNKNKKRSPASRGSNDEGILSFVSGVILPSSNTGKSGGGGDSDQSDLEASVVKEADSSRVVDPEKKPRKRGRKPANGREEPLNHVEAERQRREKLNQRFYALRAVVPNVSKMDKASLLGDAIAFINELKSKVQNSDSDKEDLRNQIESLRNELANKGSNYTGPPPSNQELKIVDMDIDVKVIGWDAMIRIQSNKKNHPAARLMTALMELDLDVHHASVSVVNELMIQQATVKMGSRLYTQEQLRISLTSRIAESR
binder,measurement,value
G2-box probe of NtQPT2 promoter (dsDNA) DNA 1: AGTAGCTGAACACGTTTTATTTATGGTTGTTGAATAGT DNA 2: ACTATTCAACAACCATAAATAAAACGTGTTCAGCTACT,binding result,binds
